The stoichiometry N is the number of molecules, sites or subunits per partner or assembly. As a reminder, the Kd is the constant that tells how readily two partners part at equilibrium.

Data on 4 molecules can be found in PMC8560819, “Dynamic interactions and Ca^2+-binding modulate the holdase-type chaperone activity of S100B preventing tau aggregation and seeding” (Nature Communications, 2021).

To fix the notation:
B1: S100B (natural protein)
chain: MSELEKAMVALIDVFHQYSGREGDKHKLKKSELKELINNELSHFLEEIKEQEVVDKVMETLDNDGDGECDFQEFMAFVAMVTTACHEFFEHE
notes: the crystal structure PDB 2H61 and the assignment BMRB 27199 were used for it; Used unlabelled or uniformly 15N-labelled (M9 medium with 15N-ammonium chloride); also called S100B-Ca^2+; apo S100B
B2: R0 peptide (peptide)
peptide: Ac-REPKKVAVVRTP-NH2
notes: 12-residue tau peptide from the proline-rich region, holds Thr231; also called RO; source: synthetic peptide, bought: Genecust (France)
B3: R2 peptide (peptide)
peptide: Ac-PGGGKVQIINKK-NH2
notes: 12-residue tau peptide within K18 that holds PHF6* (275-VQIINK-280); source: synthetic peptide, bought: Genecust (France)
B4: R3 peptide (peptide)
peptide: Ac-PGGGSVQIVYKP-NH2
notes: 12-residue tau peptide within K18 that holds PHF6 (306-VQIVYK-311); source: synthetic peptide, bought: Genecust (France)

Data set [1] concerns the molecule itself. Briefly: SEC-SAXS; Superdex 200 (3.2/300), 50 mM Tris-HCl, 100 mM NaCl, 2% glycerol, 2 mM CaCl2, pH 7.9; S100B alone, S100B mixed with equimolar K18, or K18 alone, 12–13 mg/ml. On the technique in general: Size exclusion chromatography separates by hydrodynamic size, large species first.
The target in the data set “S100B” is B1. Briefly: NMR titration; 100 µM 15N-S100B titrated with 50 to 750 µM tau peptide; 50 mM Hepes pH 6.8, 1.25 mM CaCl2, 298 K; Kd from chemical shift perturbation of 11 resonances. To be noted: both partners purified.

Turning to B1, the “stoichiometry N” value in data set [1] was 2.

Regarding B2, in the data set with S100B, the Kd was 519 µM.

B3: the Kd in the data set with S100B amounted to 163 µM.

With B4, the Kd with S100B came out at 266 µM.
